Here are results for 4 proteins from patent publication US20080003630.

The target in this data set is GST-poly (Glu, Tyr) fusion protein.
Chain of GST-poly (Glu, Tyr) fusion protein (chain, as listed by the source): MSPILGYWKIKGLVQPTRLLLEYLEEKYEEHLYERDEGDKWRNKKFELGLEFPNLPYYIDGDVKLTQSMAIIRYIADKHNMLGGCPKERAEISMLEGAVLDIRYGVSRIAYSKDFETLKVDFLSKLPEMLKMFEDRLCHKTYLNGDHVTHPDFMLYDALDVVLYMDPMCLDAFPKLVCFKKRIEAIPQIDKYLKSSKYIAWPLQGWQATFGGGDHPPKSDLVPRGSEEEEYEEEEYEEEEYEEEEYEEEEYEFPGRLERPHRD

B1: PDGF Receptor β Kinase, intracellular domain (ICD) (protein)
chain: RYEIRWKVIESVSSDGHEYIYVDPMQLPYDSTWELPRDQLVLGRTLGSGAFGQVVEATAHGLSHSQATMKVAVKMLKSTARSSEKQALMSELKIMSHLGPHLNVVNLLGACTKGGPIYIITEYCRYGDLVDYLHRNKHTFLQHHSDKRRPPSAELYSNALPVGLPLPSHVSLTGESDGGYMDMSKDESVDYVPMLDMKGDVKYADIESSNYMAPYDNYVPSAPERTCRATLINESPVLSYMDLVGFSYQVANGMEFLASKNCVHRDLAARNVLICEGKLVKICDFGLARDIMRDSNYISKGSTFLPLKWMAPESIFNSLYTTLSDVWSFGILLWEIFTLGGTPYPELPMNEQFYNAIKRGYRMAQPAHASDEIYEIMQKCWEEKFEIRPPFSQLVLLLERLLGEGYKKKYQQVDEEFLRSDHPAILRSQARLPGFHGLRSPLDTSSVLYTAVQPNEGDNDYIIPLPDPKPEVADEGPLEGSPSLASSTLNEVNTSSTISCDSPLEPQDEPEPEPQLELQVEPEPELEQLPDSGCPAPRAEAEDSFL
B1: the “phosphorylation of the substrate with ATP, Western blotting with Anti-Phosphotyrosine clone 4G10” value (“phosphorylation of the substrate” for short) is recorded as “In +of all of (i to vii) in FIG. 1, a single band was observed at a position where the phosphorylated GST-poly (Glu, Tyr) fusion protein appears”.

B2: IGF-1 Receptor Kinase, intracellular domain (ICD) (protein)
chain: RKRNNSRLGNGVLYASVNPEYFSAADVYVPDEWEVAREKITMSRELGQGSFGMVYEGVAKGVVKDEPETRVAIKTVNEAASMRERIEFLNEASVMKEFNCHHVVRLLGVVSQGQPTLVIMELMTRGDLKSYLRSLRPEMENNPVLAPPSLSKMIQMAGEIADGMAYLNANKFVHRDLAARNCMVAEDFTVKIGDFGMTRDIYETDYYRKGGKGLLPVRWMSPESLKDGVFTTYSDVWSFGVVLWEIATLAEQPYQGLSNEQVLRFVMEGGLLDKPDNCPDMLFELMRMCWQYNPKMRPSFLEIISSIKEEMEPGFREVSFYYSEENKLPEPEELDLEPENMESVPLDPSASSSSLPLPDRHSGHKAENGPGPGVLVLRASFDERQPYAHMNGGRKNERALPLPQSSTC
Consider B2, for which the “phosphorylation of the plate-bound substrate, ELISA with HRP-labeled p-Tyr (PY20) antibody, absorbance (650 nm)” value was “In either case of HER1 and IGF1R, as the tyrosine kinase amount increased, a measured value was increased”; the “phosphorylation of the substrate” value is “In +of all of (i to vii) in FIG. 1, a single band was observed at a position where the phosphorylated GST-poly (Glu, Tyr) fusion protein appears”.

B3: ErbB4 Kinase, intracellular domain (ICD) (protein)
chain: RRKSIKKKRALRRFLETELVEPLTPSGTAPNQAQLRILKETELKRVKVLGSGAFGTVYKGIWVPEGETVKIPVAIKILNETTGPKANVEFMDEALIMASMDHPHLVRLLGVCLSPTIQLVTQLMPHGCLLEYVHEHKDNIGSQLLLNWCVQIAKGMMYLEERRLVHRDLAARNVLVKSPNHVKITDFGLARLLEGDEKEYNADGGKMPIKWMALECIHYRKFTHQSDVWSYGVTIWELMTFGGKPYDGIPTREIPDLLEKGERLPQPPICTIDVYMVMVKCWMIDADSRPKFKELAAEFSRMARDPQRYLVIQGDDRMKLPSPNDSKFFQNLLDEEDLEDMMDAEEYLVPQAFNIPPPIYTSRARIDSNRSEIGHSPPPAYTPMSGNQFVYRDGGFAAEQGVSVPYRAPTSTIPEAPVAQGATAEIFDDSCCNGTLRKPVAPHVQEDSSTQRYSADPTVFAPERSPRGELDEEGYMTPMRDKPKQEYLNPVEENPFVSRRKNGDLQALDNPEYHNASNGPPKAEDEYVNEPLYLNTFANTLGKAEYLKNNILSMPEKAKKAFDNPDYWNHSLPPRSTLQHPDYLQEYSTKYFYKQNGRIRPIVAENPEYLSEFSLKPGTVLPPPPYRHRNTVV
Turning to B3, the “phosphorylation of the substrate” value is listed as “In +of all of (i to vii) in FIG. 1, a single band was observed at a position where the phosphorylated GST-poly (Glu, Tyr) fusion protein appears”.

B4: VEGF Receptor 1 Kinase, intracellular domain (ICD) (protein)
chain: RKMKRSSSEIKTDYLSIIMDPDEVPLDEQCERLPYDASKWEFARERLKLGKSLGRGAFGKVVQASAFGIKKSPTCRTVAVKMLKEGATASEYKALMTELKILTHIGHHLNVVNLLGACTKQGGPLMVIVEYCKYGNLSNYLKSKRDLFFLNKDAALHMEPKKEKMEPGLEQGKKPRLDSVTSSESFASSGFQEDKSLSDVEEEEDSDGFYKEPITMEDLISYSFQVARGMEFLSSRKCIHRDLAARNILLSENNVVKICDFGLARDIYKNPDYVRKGDTRLPLKWMAPESIFDKIYSTKSDVWSYGVLLWEIFSLGGSPYPGVQMDEDFCSRLREGMRMRAPEYSTPEIYQIMLDCWHRDPKERPRFAELVEKLGDLLQANVQQDGKDYIPINAILTGNSGFTYSTPAFSEDFFKESISAPKFNSGSSDDVRYVNAFKFMSLERIKTFEELLPNATSMFDDYQGDSSTLLASPMLKRFTWTDSKPKASLKIDLRVTSKSKESGLSDVSRPSFCHSSCGHVSEGKRRFTYDHAELERKIACCSPPPDYNSVVLYSTPPI
In the case of B4, the “phosphorylation of the substrate” value was “In +of all of (i to vii) in FIG. 1, a single band was observed at a position where the phosphorylated GST-poly (Glu, Tyr) fusion protein appears”.
